Results on two molecules are retold here after patent US20030190679A1 (Takeda / Millennium, published 2003).

Assay [1] deals with T1, myc-tagged CARD-12 (human, UniProt Q9NPP4 1-1024).
T1 construct: Transiently overexpressed in 293T cells
Put plainly: co-immunoprecipitation from 293T lysates (IP anti-T7, blot anti-myc). Here is the method: FIGS. 10A-10C depict the results of co-immunopreciptation analysis. FIG. 10A: After 24 hrs, extracts were prepared and immunoprecipitated (IP) with a monoclonal antibody to the T7 epitope. The immunoprecipitates were analyzed by SDS-PAGE and immunoblotted with an anti-myc polyclonal antibody. FIG. 10B: The cellular extracts were also immunoblotted (WB) with anti-T7 antibody. FIG. 10C: Extracts were also immunoprecipitated with a monoclonal antibody to myc, followed by WB with an anti-myc polyclonal antibody.
An additional mechanism by which CARD-12 may cause cell death is by the activation of upstream caspases via a CARD/CARD interaction. The proform of caspase-1 and caspase-9 both contain an N-terminal CARD. Therefore, caspase-1 and caspase-9 were investigated as possible CARD-12 signaling partners following transient overexpression in cells. Briefly, 293T cells transfected with plasmids were lysed in 50 mM Tris, pH 8.0, 120 mM NaCl, 1 mM EDTA, 0.5% Nonidet P-40 buffer and incubated with either a T7 (Sigma) or myc monoclonal antibody (SantaCruz Biotechnology, Inc.). The immune complexes were precipitated with protein G-Sepharose (Amersham Pharmacia Bio), washed extensively, and then subjected to SDS-polyacrylamide gel electrophoresis and immunoblotted with polyclonal antibody to myc (SantaCruz). […]

Assay [2] concerns the target CARD domain of CARD-12 fused to the DNA-binding domain of pCMV-BD (self-association partner) (human). Put plainly: cell-based or functional assay.
The target of assay [3] is CARD domain of CARD-5 (ASC) fused to the DNA-binding domain of pCMV-BD (UniProt Q9ULZ3 107-195). Put plainly: cell-based or functional assay.
Chain of CARD domain of CARD-5 (ASC) fused to the DNA-binding domain of pCMV-BD (Q9ULZ3 whole entry, the tested form may be a part): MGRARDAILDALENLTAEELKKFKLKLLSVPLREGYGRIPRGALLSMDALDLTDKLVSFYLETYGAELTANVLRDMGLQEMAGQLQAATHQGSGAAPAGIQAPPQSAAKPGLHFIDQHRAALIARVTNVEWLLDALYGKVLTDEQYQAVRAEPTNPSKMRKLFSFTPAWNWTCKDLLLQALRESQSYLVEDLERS

B1: T7-tagged procaspase-9 (enzyme, UniProt P55211 1-416, looked up, not shown: small tags and cut ends)
chain: MDEADRRLLRRCRLRLVEELQVDQLWDALLSRELFRPHMIEDIQRAGSGSRRDQARQLIIDLETRGSQALPLFISCLEDTGQDMLASFLRTNRQAAKLSKPTLENLTPVVLRPEIRKPEVLRPETPRPVDIGSGGFGDVGALESLRGNADLAYILSMEPCGHCLIINNVNFCRESGLRTRTGSNIDCEKLRRRFSSLHFMVEVKGDLTAKKMVLALLELAQQDHGALDCCVVVILSHGCQASHLQFPGAVYGTDGCPVSVEKIVNIFNGTSCPSLGGKPKLFFIQACGGEQKDHGFEVASTSPEDESPGSNPEPDATPFQEGLRTFDQLDAISSLPTPSDIFVSYSTFPGFVSWRDPKSGSWYVETLDDIFEQWAHSEDLQSLLLRVANAVSVKGIYKQMPGCFNFLRKKLFFKTS
notes: Transiently overexpressed in 293T cells
Regarding B1, the binding result in assay [1] is “no binding”.

B2: CARD domain of CARD-12 (residues 1-83) fused to the activation domain of pCMV-AD (plasmid pCMV-CARD-12-CARD/AD) (other, not shown: large carriers)
chain: MNFIKDNSRALIQRMGMTVIKQITDDLFVWNVLNREEVNIICCEKVEQDAARGIIHMILKKGSESCNLFLKSLKEWNYPLFQD
Regarding B2, the “relative luciferase activity (mammalian two-hybrid)” value came out at 30 fold in assay [2] and 10 fold in assay [3].
